Our source for the absorbance values is patent publication US20240376185A1.

The target of one assay is bovine IgG. The assay is described as follows: ELISA, coated antigen, E. coli supernatant. Background: ELISA stands for enzyme-linked immunosorbent assay.
For a further assay, the target named is dog IgG Fab fragment. The assay is described as follows: ELISA, coated antigen, E. coli supernatant.
The target in another assay is horse IgG Fab fragment. The assay is described as follows: ELISA, coated antigen, E. coli supernatant.
Another assay deals with human IgG. Nature of the assay: ELISA, coated antigen, E. coli supernatant.
The target in a further assay is dog IgG. The assay is described as follows: ELISA, coated antigen, E. coli supernatant.
The next assay concerns the target swine IgG. Nature of the assay: ELISA, coated antigen, E. coli supernatant.
Another assay concerns the target horse IgG Fc fragment. Nature of the assay: ELISA, coated antigen, E. coli supernatant.
In a further assay the target is guinea pig IgG. The assay is described as follows: ELISA, coated antigen, E. coli supernatant.
The target in a further assay is horse IgG. The assay is described as follows: ELISA, coated antigen, E. coli supernatant (no SDA 0.255, 0.261).
A further assay addresses dog serum albumin (dog) (UniProt P49822). The assay is described as follows: ELISA, coated albumin, E. coli supernatant.
Assay [1] concerns the target human serum albumin (human) (UniProt P02768). Nature of the assay: ELISA, coated albumin, E. coli supernatant.
The target of assay [2] is horse serum albumin (horse) (UniProt P35747). Nature of the assay: ELISA, coated albumin, E. coli supernatant.
Chain of horse serum albumin (horse) (P35747 25-607): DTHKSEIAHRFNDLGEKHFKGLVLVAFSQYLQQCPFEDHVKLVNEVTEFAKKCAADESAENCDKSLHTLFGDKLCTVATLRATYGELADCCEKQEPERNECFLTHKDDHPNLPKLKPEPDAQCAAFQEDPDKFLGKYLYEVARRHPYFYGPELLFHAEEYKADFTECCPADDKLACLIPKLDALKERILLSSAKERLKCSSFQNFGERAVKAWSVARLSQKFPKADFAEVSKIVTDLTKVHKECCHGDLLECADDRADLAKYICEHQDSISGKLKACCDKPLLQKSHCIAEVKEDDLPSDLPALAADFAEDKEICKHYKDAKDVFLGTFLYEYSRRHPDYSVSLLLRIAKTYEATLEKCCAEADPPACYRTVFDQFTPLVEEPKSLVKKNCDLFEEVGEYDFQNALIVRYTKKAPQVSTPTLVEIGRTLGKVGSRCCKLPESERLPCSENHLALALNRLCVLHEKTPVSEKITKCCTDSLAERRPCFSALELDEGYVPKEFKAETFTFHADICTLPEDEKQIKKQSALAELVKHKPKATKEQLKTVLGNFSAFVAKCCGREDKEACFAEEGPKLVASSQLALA

Chain of dog serum albumin (dog) (P49822 25-608): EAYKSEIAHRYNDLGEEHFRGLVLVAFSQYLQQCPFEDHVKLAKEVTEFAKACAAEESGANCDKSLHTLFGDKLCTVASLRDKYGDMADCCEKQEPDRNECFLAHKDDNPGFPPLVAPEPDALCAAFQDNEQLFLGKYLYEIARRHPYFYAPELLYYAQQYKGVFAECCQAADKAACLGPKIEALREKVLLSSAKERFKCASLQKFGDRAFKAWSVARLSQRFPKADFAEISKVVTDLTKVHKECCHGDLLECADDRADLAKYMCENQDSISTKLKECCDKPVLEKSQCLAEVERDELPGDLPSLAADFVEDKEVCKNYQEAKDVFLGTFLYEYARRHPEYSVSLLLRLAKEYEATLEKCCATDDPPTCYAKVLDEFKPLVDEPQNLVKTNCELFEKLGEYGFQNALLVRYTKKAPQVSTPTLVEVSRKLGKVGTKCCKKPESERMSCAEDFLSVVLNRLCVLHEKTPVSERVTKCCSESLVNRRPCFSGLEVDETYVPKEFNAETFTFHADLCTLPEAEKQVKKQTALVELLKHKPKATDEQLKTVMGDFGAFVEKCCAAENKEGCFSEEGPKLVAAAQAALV

B1: SVG24 (VHH, not shown: large carriers)
VHH: QVQLQQSGGGLVQAGGSLRLSCAASGRTFSTYNIAWFRQAPGKEREFVTAITWGSGNTYYADSVKGRFTISRDNAKNTVFLQMNSLKPDDTAVYYCAARRSLGPTMAFAYEYWGQGTQVTVSS
For B1, the absorbance at 450 nm came to 0.075 A450 with bovine IgG; 0.074 A450 with dog IgG Fab fragment; 0.06 A450 in the assay with horse IgG Fab fragment; 0.084 A450 with human IgG; 1.74 A450 in the assay with dog IgG; 0.341 A450 with swine IgG. Moreover, the absorbance at 450 nm in the assay with horse IgG Fc fragment came to 1.67 A450; with guinea pig IgG it was 0.068 A450; with horse IgG it was 0.765 A450.

B2: SVG13 (VHH)
VHH: QVQLQESGGGLVQPGGSLRLSCEASGFTFDDYGMSWVRQAPGKGLEWVSSLTPNGGSTYYADSVKGRFTISRDNAKNTLYLQMNSLKPEDTALYYCAKNSYYGAMDYWGKGTLVTVSS
In the case of B2, the absorbance at 450 nm stood at 0.272 A450 in the assay with bovine IgG; 0.59 A450 in the assay with dog IgG Fab fragment; 0.222 A450 with horse IgG Fab fragment; 0.524 A450 with human IgG; 0.693 A450 with dog IgG; 0.195 A450 with swine IgG. For the same molecule, the absorbance at 450 nm with horse IgG Fc fragment stood at 0.097 A450; with guinea pig IgG, 0.579 A450; with horse IgG it was 0.436 A450.

B3: SVG23 (VHH, not shown: large carriers)
VHH: QVQLQESGGGLVQAGGSLRLSCAASGRAFGSYTMNWFRQAPGKERDFVAGIMSSGMNTWYADSVKGRFTISRDNAKNTVYLQMNSLKPEDTAVYYCASRPRSTMTSGRYLYDYWGQGTQVTVSS
As to B3, the absorbance at 450 nm with bovine IgG stood at 0.062 A450; in the assay with dog IgG Fab fragment, 0.061 A450; with horse IgG Fab fragment it was 0.056 A450; with human IgG, 0.073 A450; with dog IgG it was 1.74 A450; with swine IgG, 0.092 A450. In addition, the absorbance at 450 nm with horse IgG Fc fragment was determined as 0.072 A450; in the assay with guinea pig IgG, 0.068 A450; in the assay with horse IgG it was 0.26 A450.

B4: SVG06 (VHH)
VHH: QVQLQESGGALVQPGGSLRLSCAASGFPFSAYDMTWVRQAPGQGLEWVSTIHKSGGITTYADSVKGRFTISRDNAKNTLYLQMNNLESEDTAVYYCAKALRAHNSDYVGRNALGSWGEGTLVTVSS
In the case of B4, the absorbance at 450 nm in the assay with bovine IgG was determined as 0.172 A450; with dog IgG Fab fragment, 0.178 A450; with horse IgG Fab fragment it was 0.089 A450; with human IgG, 0.365 A450; with dog IgG, 0.277 A450; in the assay with swine IgG, 0.131 A450. For the same molecule, the results for the absorbance at 450 nm with horse IgG Fc fragment, in the assay with guinea pig IgG and with horse IgG were 0.073 A450, 0.204 A450 and 0.325 A450, respectively.

B5: SVA04 (VHH, not shown: large carriers)
VHH: QVQLQQSGGGLVQAGGSLRLACAASGRTLSSYVMGWFRQAPGKEREFVAAISWSGGSTYYADSVKGRFTISRDNAKNTVYLQMNSLKPEDTAVYYCAATLRGSNRYYSGRVYDYWGQGTQVTVSS
The molecule B5 yielded an absorbance at 450 nm with dog serum albumin (dog) of 1.53 A450.

B6: SVG18 (VHH, not shown: large carriers)
VHH: QVQLQQSGGGLVQPGGSLRLSCAASGFTFSSYAMSWVRQAPGKGLEWVSAINSGGDIISYADSVKGRFTISRDNAKNTLYLQMNSLKPEDTAVYYCAKSPIVRTYGGYDYWGQGTQVTVSS
For B6, the absorbance at 450 nm with bovine IgG worked out at 0.124 A450; with dog IgG Fab fragment it was 1.36 A450; in the assay with horse IgG Fab fragment it was 0.32 A450; with human IgG, 0.096 A450; with dog IgG it was 1 A450; with swine IgG, 0.097 A450. Further, the absorbance at 450 nm with horse IgG Fc fragment stood at 0.072 A450; with guinea pig IgG, 0.174 A450; with horse IgG, 0.478 A450.

B7: SVA12 (VHH)
VHH: QVQLQESGGRLVQAEDSLRLSCAASGRTFVSYDMGWFRQAPGKEREFVAAINWRGYTTDYVDSVKGRFFISRDIAKSTVYLQMNNLKPEDTAVYYCAARQMSGSSRYSPPGRVGYDFWGQGTQVTVSS
Regarding B7, the absorbance at 450 nm in [1] came out at 0.057 A450; in the assay with dog serum albumin (dog) it was 1.77 A450; in [2], 2 A450.

B8: SVG03 (VHH, not shown: large carriers)
VHH: QVQLQESGGGLVQAGGSLRLSCAASGRTFSNYVMGWFRQAPGKEREFVSAISWNGVSTFYADSVKGRFTISRDNAKNTVYLQMNSLKPEDTAVYYCAADERFVVRYNYWGQGTQVTVSS
In the case of B8, the absorbance at 450 nm with bovine IgG turned out to be 0.061 A450; in the assay with dog IgG Fab fragment, 0.054 A450; with horse IgG Fab fragment, 0.057 A450; in the assay with human IgG, 0.076 A450; with dog IgG it was 0.07 A450; with swine IgG it was 0.075 A450. In addition, the absorbance at 450 nm with horse IgG Fc fragment was 0.476 A450; with guinea pig IgG it was 0.063 A450; in the assay with horse IgG, 1.1 A450.

B9: SVG19 (VHH, not shown: large carriers)
VHH: QVQLQQSGGGLVQPGGSLRLSCAASGFTFSSYAMSWVRQAPGKGLEWVSAINSGGGSTSYADSVKGRFTISRDNAKNTLYLQMNSLKPEDTAVYYCAKDFDPWGVGTGGYDYWGQGTQVTVSS
As to B9, the absorbance at 450 nm in the assay with bovine IgG worked out at 0.453 A450; in the assay with dog IgG Fab fragment it was 1.22 A450; with horse IgG Fab fragment, 0.472 A450; with human IgG, 0.309 A450; in the assay with dog IgG, 1.02 A450; in the assay with swine IgG, 0.146 A450. Further, the absorbance at 450 nm with horse IgG Fc fragment was 0.079 A450; in the assay with guinea pig IgG, 0.435 A450; with horse IgG, 0.681 A450.

B10: SVG07 (VHH, not shown: large carriers)
VHH: QVQLQESGPGLVKPSQTLSLTCTVSGGSITTTAYAWSWIRQPPGKGLEWMGAIRFDGTTDYSPSLKSRISISRDTSNNQFSLRMSSVTPEDTAVYYCARYGVVSDHGGLDYWGQGTQVTVSS
On to B10, for which the absorbance at 450 nm with bovine IgG worked out at 0.121 A450; with dog IgG Fab fragment, 0.454 A450; with horse IgG Fab fragment it was 0.152 A450; with human IgG, 0.17 A450; with dog IgG, 0.479 A450; in the assay with swine IgG it was 0.103 A450. Moreover, the absorbance at 450 nm with horse IgG Fc fragment came to 0.099 A450; with guinea pig IgG, 0.249 A450; in the assay with horse IgG, 0.401 A450.
